Measured values taken from the supplement of paper PMC10724198.
± gives the standard deviation of the averaged measurements.

These sequences were tested on Saccharomyces cerevisiae (assay: protein stability index of tFT-peptide fusion (C-terminal peptide) (PSI (0-1 scale)); higher = more stable (slower turnover)). Details: genetic background: wild type; temperature: 30 C.
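Note: PSI is a weighted mean of sequencing reads over stability bins, variants kept only with over 10 reads, mCherry proximal and sfGFP distal, peptide attached via GGGS linker.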

Sequence | protein stability index
NTTTTKNRTPKR | 0.6952 ± 0.0063
NVACNGKGEQVL | 0.7268 ± 0.0011
NVCICSIRNATN | 0.804 ± 0.11
NVENSNTAGKGV | 0.689 ± 0.024
NVKPGKIRRRRG | 0.667 ± 0.14
NVLVSPFVPLSF | 0.724 ± 0.0089
NWAPRCCIGNII | 0.669 ± 0.12
NWIIARFVPIGL | 0.685 ± 0.041
NYLLYSRRSVRV | 0.532 ± 0.04
PACPLISPIGRF | 0.673 ± 0.05
PADLCPPGSLSP | 0.683 ± 0.01
PADSRGNSPPPQ | 0.675 ± 0.055
PAHPGRPPILGS | 0.597 ± 0.036
PAHRRLLPWPPA | 0.71 ± 0.14
PAIPPPPTAAPT | 0.678 ± 0.087
PAKNKKKKKNRK | 0.6911 ± 0.0031
PALASHLAPLDP | 0.6958 ± 0.0049
PALPAPFLSSPH | 0.6737 ± 0.00099
PALPFPPLTAFH | 0.683 ± 0.036
PAPDATQRVRSQ | 0.645 ± 0.0089
PAPLPFPLPTSL | 0.757 ± 0.015
PAPPAPTHAPPL | 0.683 ± 0.11
PAPPCPGTSPFP | 0.7055 ± 0.001

Sequence | protein stability index
PAPPFPPRPSPF | 0.673 ± 0.056
PAPPHPRIPSPT | 0.669 ± 0.073
PAPPLPLTPPPL | 0.788 ± 0.014
PAPPPLPPHSLP | 0.718 ± 0.024
PAPPPPPPPLYP | 0.718 ± 0.013
PAPPPPPPTPPP | 0.646 ± 0.039
PAPPPPPPTTVL | 0.691 ± 0.03
PAPPPRDLPTPP | 0.664 ± 0.007
PAPPPRRPPAPP | 0.689 ± 0.017
PAPPPSSPRSIH | 0.674 ± 0.032
PAPPSLAAPRGT | 0.663 ± 0.0092
PARLPSPSHPAS | 0.776 ± 0.063
PARPLSRPPLPP | 0.72 ± 0.052
PARTSAPPSPLI | 0.686 ± 0.0075
PASEVLFMEFVT | 0.753 ± 0.026
PASIVPPPPVPL | 0.777 ± 0.13
PASPFPQTCPPP | 0.737 ± 0.074
PASPHPPSPSPL | 0.604 ± 0.022
PASPPPAPRPPP | 0.65 ± 0.0081
PASPRDPLPRLP | 0.764 ± 0.12
PASYSAPVSLFI | 0.7035 ± 0.002
PATPPFSLPPPH | 0.669 ± 0.025
PAVCIPLPARQL | 0.743 ± 0.026

Sequence | protein stability index
PCIRRRSISTLP | 0.775 ± 0.11
PCLGATSNTGRY | 0.732 ± 0.045
PCMLSEATQQAH | 0.668 ± 0.049
PCPPLPGILSSL | 0.674 ± 0.035
PCWPARVWVSFL | 0.504 ± 0.013
PDASRRVPPPPD | 0.663 ± 0.066
PDDGLSAPPAAF | 0.722 ± 0.14
PDFPPSRTPPEF | 0.624 ± 0.022
PDGPSIVVPGQG | 0.678 ± 0.017
PDLTVYNLCGGC | 0.774 ± 0.098
PDPPAPLPPHPV | 0.669 ± 0.053
PDRPPVARATRP | 0.719 ± 0.017
PDRPYPPPLVAR | 0.694 ± 0.058
PDSLHTLRPPPP | 0.653 ± 0.022
PEDRCLDLLILC | 0.5236 ± 0.004
PEPMYHNSLFRP | 0.737 ± 0.018
PERPDPPVNDRN | 0.62 ± 0.029
PETIIENIMKRR | 0.688 ± 0.22
PFCYALPWAPPR | 0.644 ± 0.076
PFFRASFSGLID | 0.681 ± 0.061
PFIYSLPAPLPF | 0.72 ± 0.035
PFLHQRLLDSVL | 0.726 ± 0.1
PFLLPPLPPGPL | 0.706 ± 0.062

Sequence | protein stability index
PFLPSPHPSPSS | 0.713 ± 0.022
PFPCPSLPPPFP | 0.716 ± 0.022
PFPFSPPHSLVS | 0.743 ± 0.027
PFPHPPPPSPTP | 0.687 ± 0.021
PFPPPHTPLPPS | 0.791 ± 0.016
PFPPPPRLHLPP | 0.648 ± 0.04
PFPPPSAPPPSP | 0.71 ± 0.015
PFPRPLSPLPFR | 0.75 ± 0.074
PFPSIPLPPPSR | 0.703 ± 0.03
PFQPPSLIPSRH | 0.746 ± 0.026
PFSSPDLLRCPH | 0.752 ± 0.024
PFSVDLPWPPWE | 0.806 ± 0.053
PFSVQLPDVDCL | 0.715 ± 0.16
PFSWRPLSSPTA | 0.757 ± 0.004
PFVIKSWSYVTR | 0.605 ± 0.02
PFVSGLSGQHEQ | 0.637 ± 0.011
PFVSGWEKGRSF | 0.757 ± 0.033
PFYTNSSFCSLT | 0.6677 ± 0.00075
PGASAKPHSSAN | 0.712 ± 0.031
PGGQLRSHPPNV | 0.718 ± 0.013
PGIHRPLAVEDL | 0.676 ± 0.032
PGKSGRKLVSSG | 0.681 ± 0.012
PGLDPFHGMNLS | 0.6906 ± 0.0027

Sequence | protein stability index
PGLQFPIWGVKG | 0.71 ± 0.045
PGPPPGTDAFQH | 0.718 ± 0.12
PGRSMCITLVKT | 0.595 ± 0.0078
PGSADGPATYPL | 0.65 ± 0.03
PGSLVLSVVDLV | 0.683 ± 0.056
PGSQPPFVPPPR | 0.604 ± 0.019
PGSSLAPAPPPP | 0.683 ± 0.0088
PGSYLDAIVYHR | 0.701 ± 0.01
PGTGGHKRASPV | 0.6293 ± 0.0016
PGWGPLVARRFV | 0.735 ± 0.025
PGYFGHVKLSCS | 0.646 ± 0.023
PHAAERRKPCAP | 0.768 ± 0.011
PHAPCPRPSVTV | 0.625 ± 0.086
PHAPHFSRSIPS | 0.745 ± 0.027
PHAPQSPGWLHG | 0.7 ± 0.028
PHASLLPPSLSR | 0.728 ± 0.0085
PHASRRPPTLLC | 0.514 ± 0.01
PHATPPPTRPPS | 0.777 ± 0.062
PHFSSLPWAPPG | 0.749 ± 0.041
PHGSLPTRLPGP | 0.689 ± 0.035
PHIRPPQCTRPI | 0.737 ± 0.015
PHLANLFTWSSC | 0.66 ± 0.092
PHLPPLPPAPPP | 0.724 ± 0.12

Sequence | protein stability index
PHLPPRPFPTAP | 0.757 ± 0.063
PHNPFPTRTPPP | 0.71 ± 0.039
PHNRSNSWPNPR | 0.714 ± 0.054
PHPERLLCPPYP | 0.68 ± 0.024
PHPGQSAPPRPP | 0.654 ± 0.038
PHPPGFGPGRTL | 0.698 ± 0.068
PHPPLPLSPPPP | 0.72 ± 0.0084
PHPPPAPDAPCV | 0.683 ± 0.036
PHPPPLPPLPSP | 0.721 ± 0.053
PHPPPPRPPPRS | 0.642 ± 0.067
PHPSATPTPVPP | 0.7001 ± 0.0017
PHPSPGAALFAN | 0.643 ± 0.019
PHPTLATPPRRR | 0.667 ± 0.096
PHPTTPPAPRPR | 0.728 ± 0.0095
PHRAPPRETRLG | 0.837 ± 0.015
PHSKADISQIGG | 0.653 ± 0.0072
PHTEPVIVACSG | 0.601 ± 0.033
PHTPSRPLSPAP | 0.713 ± 0.063
PILFLGGSMGER | 0.676 ± 0.011
PIPPPPPPPHSP | 0.779 ± 0.043
PIPPPPPPPPDP | 0.652 ± 0.017
PIPPSTRSLHPL | 0.668 ± 0.027
PIQNHRFLPIVL | 0.713 ± 0.036

Sequence | protein stability index
PIRAITQRSDGG | 0.682 ± 0.045
PISIAVPCVLPP | 0.6654 ± 0.00093
PISSYPPLPAPR | 0.718 ± 0.06
PIYQTYSRHSYL | 0.683 ± 0.0089
PKLAELKKISDR | 0.68 ± 0.063
PKLSKLLQHSNV | 0.658 ± 0.048
PLAPPFSPPPPP | 0.645 ± 0.0082
PLAPPPPSSPPV | 0.675 ± 0.083
PLCFSLFFPFRP | 0.657 ± 0.0099
PLCPPPPTSPPP | 0.666 ± 0.031
PLCPPYPPGRVP | 0.6841 ± 0.0021
PLCRPARPRHHS | 0.7256 ± 0.0015
PLCSPALHGPPP | 0.736 ± 0.033
PLCSPPSPASNL | 0.714 ± 0.067
PLDTPYMAYNSD | 0.71 ± 0.033
PLECHTGVLGRL | 0.709 ± 0.0086
PLEKASMTLWGR | 0.691 ± 0.05
PLFAYCLIFPML | 0.533 ± 0.018
PLFGLQTPTLHR | 0.712 ± 0.057
PLFHLYRSSFPF | 0.721 ± 0.029
PLFPRPFPPPRS | 0.717 ± 0.0091
PLFSLVSLLLPI | 0.628 ± 0.036
